# Reference: doi:10.1101/2021.03.03.433707
# Molecular target: MukB, full length, wild type (E. coli) (UniProt P22523)
# Assay: fluorescence correlation spectroscopy
# Chain of MBP-ParC^CTD (ParC C-terminal domain with N-terminal MBP fusion) (domain or fragment) (P0AFI2 whole entry, the tested form may be a part): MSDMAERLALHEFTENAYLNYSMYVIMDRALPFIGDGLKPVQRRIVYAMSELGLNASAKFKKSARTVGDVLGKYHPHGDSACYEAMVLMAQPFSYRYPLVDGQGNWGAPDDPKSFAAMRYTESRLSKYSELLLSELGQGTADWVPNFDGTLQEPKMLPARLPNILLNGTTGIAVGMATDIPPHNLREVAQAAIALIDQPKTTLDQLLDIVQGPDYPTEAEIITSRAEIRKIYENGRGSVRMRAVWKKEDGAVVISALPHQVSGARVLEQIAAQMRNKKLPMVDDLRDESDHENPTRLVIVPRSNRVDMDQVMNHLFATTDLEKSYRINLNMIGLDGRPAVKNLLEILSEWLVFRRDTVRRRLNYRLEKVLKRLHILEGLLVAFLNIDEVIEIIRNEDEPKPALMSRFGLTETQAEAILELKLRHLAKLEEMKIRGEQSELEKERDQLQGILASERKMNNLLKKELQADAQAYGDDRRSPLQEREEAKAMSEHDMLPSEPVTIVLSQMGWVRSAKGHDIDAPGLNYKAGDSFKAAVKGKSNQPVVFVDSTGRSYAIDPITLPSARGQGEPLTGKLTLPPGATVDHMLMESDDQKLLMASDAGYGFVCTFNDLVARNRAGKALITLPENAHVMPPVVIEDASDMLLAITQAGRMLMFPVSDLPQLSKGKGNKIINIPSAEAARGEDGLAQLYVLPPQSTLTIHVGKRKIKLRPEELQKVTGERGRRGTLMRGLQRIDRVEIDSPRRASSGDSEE
# Chain of MukB, full length, wild type (E. coli) (P22523 whole entry): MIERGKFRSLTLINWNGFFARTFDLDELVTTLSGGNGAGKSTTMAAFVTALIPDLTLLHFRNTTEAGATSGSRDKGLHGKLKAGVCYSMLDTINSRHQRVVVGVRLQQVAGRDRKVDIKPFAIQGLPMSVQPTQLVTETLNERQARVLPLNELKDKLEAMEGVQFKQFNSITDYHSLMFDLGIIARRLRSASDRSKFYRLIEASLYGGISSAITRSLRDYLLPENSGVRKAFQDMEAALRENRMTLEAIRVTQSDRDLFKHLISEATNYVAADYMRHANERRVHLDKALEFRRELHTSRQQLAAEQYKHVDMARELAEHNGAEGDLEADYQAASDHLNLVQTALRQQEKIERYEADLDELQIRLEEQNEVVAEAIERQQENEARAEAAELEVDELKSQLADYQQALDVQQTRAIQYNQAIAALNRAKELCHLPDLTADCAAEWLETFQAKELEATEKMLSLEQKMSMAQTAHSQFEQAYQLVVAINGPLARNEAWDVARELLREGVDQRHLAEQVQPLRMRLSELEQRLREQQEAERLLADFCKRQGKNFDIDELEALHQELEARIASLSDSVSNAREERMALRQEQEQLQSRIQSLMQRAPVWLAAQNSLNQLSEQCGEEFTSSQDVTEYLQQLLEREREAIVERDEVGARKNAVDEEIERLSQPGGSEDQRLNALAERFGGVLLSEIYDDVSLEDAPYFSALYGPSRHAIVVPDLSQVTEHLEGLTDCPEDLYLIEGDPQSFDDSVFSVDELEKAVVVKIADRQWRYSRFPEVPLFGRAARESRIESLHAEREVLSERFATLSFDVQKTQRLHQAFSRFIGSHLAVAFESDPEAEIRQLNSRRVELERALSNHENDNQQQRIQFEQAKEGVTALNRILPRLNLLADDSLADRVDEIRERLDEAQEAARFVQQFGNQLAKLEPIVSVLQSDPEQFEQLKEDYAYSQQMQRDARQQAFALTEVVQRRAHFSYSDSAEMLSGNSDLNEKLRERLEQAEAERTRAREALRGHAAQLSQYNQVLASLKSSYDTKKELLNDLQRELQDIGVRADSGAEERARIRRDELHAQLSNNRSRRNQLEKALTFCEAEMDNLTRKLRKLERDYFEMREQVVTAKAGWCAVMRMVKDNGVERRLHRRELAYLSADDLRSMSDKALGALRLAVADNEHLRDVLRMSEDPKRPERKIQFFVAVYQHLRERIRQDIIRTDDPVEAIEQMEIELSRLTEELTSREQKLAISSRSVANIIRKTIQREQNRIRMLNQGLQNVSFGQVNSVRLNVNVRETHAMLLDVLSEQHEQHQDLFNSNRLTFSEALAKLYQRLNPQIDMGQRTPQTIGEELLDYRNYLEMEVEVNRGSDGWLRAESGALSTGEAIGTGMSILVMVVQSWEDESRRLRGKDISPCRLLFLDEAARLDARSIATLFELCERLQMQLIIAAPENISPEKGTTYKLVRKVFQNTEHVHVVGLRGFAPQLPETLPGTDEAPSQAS
substance,measurement,value
MBP-ParC^CTD (ParC C-terminal domain with N-terminal MBP fusion) (domain or fragment),fold decrease in MatP-Cy3B binding to MukB at a 10-fold excess of competitor,3 fold
